From article PMC6521355, “Enzymatic Conversion of RBCs by α-N-Acetylgalactosaminidase from Spirosoma linguale” (Enzyme Research, 2019)
Values belong to the molecule of their own block, whether it stands above or below them.

Key:
[1] = target: Spirosoma linguale α-N-acetylgalactosaminidase (Spirosoma linguale); test: SEC; analytical gel filtration of the tag-free purified enzyme, Zorbax GF-250 column, 30°C, TBS (50 mM Tris 150 mM NaCl) pH 7.4, 1.0 mL/min; mass from Ve/Vo against five protein standards
[2] = target: T1, S. linguale α-NAGA (SlNAGA) (Spirosoma linguale, UniProt D2QUW2); test: Product inhibition of 4-nitrophenyl substrate hydrolysis, absorbance at […] nm, competitive model fit; type: biochemical; details: 20 mM sodium phosphate pH 7.0, ~22 °C
T1 construct: gene Slin_6637; E. coli BL21(DE3); monomer 48215 Da calculated, 96 kDa dimer; primers encode N-term MPSLYTTAQ and C-term PIFGLTDVY
T1 sequence (D2QUW2 1-435): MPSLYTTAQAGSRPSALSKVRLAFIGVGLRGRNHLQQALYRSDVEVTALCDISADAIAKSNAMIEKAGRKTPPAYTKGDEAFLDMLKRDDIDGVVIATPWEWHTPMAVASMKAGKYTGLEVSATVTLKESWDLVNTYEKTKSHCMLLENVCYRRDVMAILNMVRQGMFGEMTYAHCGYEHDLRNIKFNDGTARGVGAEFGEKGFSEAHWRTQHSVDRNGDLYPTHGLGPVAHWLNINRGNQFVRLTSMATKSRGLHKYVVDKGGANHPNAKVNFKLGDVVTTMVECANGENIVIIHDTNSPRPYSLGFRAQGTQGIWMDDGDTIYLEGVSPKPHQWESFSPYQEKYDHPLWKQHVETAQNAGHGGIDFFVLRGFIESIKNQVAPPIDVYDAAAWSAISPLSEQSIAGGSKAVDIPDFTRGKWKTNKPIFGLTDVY

purified protein = substrate: CC(=O)N[C@H]1[C@@H](Oc2ccc([N+](=O)[O-])cc2)O[C@H](CO)[C@H](O)[C@@H]1O; test: purified protein; type: biochemical, Spirosoma linguale; details: 20 mM sodium phosphate pH 7.4, 25 °C

stoichiometry N [1]: 2
Molecule: Spirosoma linguale α-N-acetylgalactosaminidase (enzyme)

Ki [2]: 180 ± 24 µM
Molecule: CC(=O)N[C@H]1C(O)O[C@H](CO)[C@H](O)[C@@H]1O (some centres unmarked) [N-acetylgalactosamine]

B1: S. linguale α-NAGA (SlNAGA) (Spirosoma linguale DSM 74) (protein)
chain: MPSLYTTAQAGSRPSALSKVRLAFIGVGLRGRNHLQQALYRSDVEVTALCDISADAIAKSNAMIEKAGRKTPPAYTKGDEAFLDMLKRDDIDGVVIATPWEWHTPMAVASMKAGKYTGLEVSATVTLKESWDLVNTYEKTKSHCMLLENVCYRRDVMAILNMVRQGMFGEMTYAHCGYEHDLRNIKFNDGTARGVGAEFGEKGFSEAHWRTQHSVDRNGDLYPTHGLGPVAHWLNINRGNQFVRLTSMATKSRGLHKYVVDKGGANHPNAKVNFKLGDVVTTMVECANGENIVIIHDTNSPRPYSLGFRAQGTQGIWMDDGDTIYLEGVSPKPHQWESFSPYQEKYDHPLWKQHVETAQNAGHGGIDFFVLRGFIESIKNQVAPPIDVYDAAAWSAISPLSEQSIAGGSKAVDIPDFTRGKWKTNKPIFGLTDVY
notes: E. coli BL21(DE3); monomer 48215 Da calculated, 96 kDa dimer; primers encode N-term MPSLYTTAQ and C-term PIFGLTDVY
Km (purified protein): 1070 ± 70 µM
kcat (purified protein): 173 s⁻¹
kcat/Km (purified protein): 163000 M⁻¹ s⁻¹
